Earlier results on one substance are cited in patent publication US8232251B2, “Compounds for delivery of therapeutic and imaging moieties to nerve cells” (Manzanita Pharmaceuticals, Inc., priority 1998, dated 2012).

The target in this data set is T1, p75 (Homo sapiens, UniProt P08138).
T1 sequence (P08138 29-427): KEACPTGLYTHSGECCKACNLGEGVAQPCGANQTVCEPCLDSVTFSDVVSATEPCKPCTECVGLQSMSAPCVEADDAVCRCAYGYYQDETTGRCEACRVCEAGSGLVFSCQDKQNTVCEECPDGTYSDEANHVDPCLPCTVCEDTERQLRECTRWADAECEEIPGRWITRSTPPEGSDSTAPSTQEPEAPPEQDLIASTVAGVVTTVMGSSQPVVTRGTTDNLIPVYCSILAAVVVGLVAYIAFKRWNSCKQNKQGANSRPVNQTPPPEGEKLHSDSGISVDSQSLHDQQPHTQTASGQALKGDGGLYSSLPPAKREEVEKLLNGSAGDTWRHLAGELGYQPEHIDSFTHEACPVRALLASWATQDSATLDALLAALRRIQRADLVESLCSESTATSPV
The settings on record: lower affinity binding to more abundant p75.

pKd: −log10 of the molar value.

On to “NGF: nerve growth factor, first identified member of the neurotrophin family; used as binding agent B”, for which the pKd is 9.00.

A word on the pKd: it is −log10 of the Kd, conventionally taken in molar units.
